The assay concerns the target IL-18BP (human). The assay is described as follows: BLI. (BLI is a label-free optical method that tracks binding on a fibre tip over time.)

The source of these data is patent publication US20260347486 (published 2026).

B1: IL18R_VHHα2β15 (antibody, V domains shown)
V domain 1: DVQLQESGGGLVQAGGSLRLSCAASGFTLLDSYDIGWFRQAPGKKREEVSCISSSGGKSTYYADSVKGRFTISRDNANNTVYLQMNSLKPEDTAVYYCAADGAEGFWSCQSGGYDYWGQGTQVTVSS
V domain 2: DVQLQESGGGLVQPGGSLRLSCAASGRFFTINAMGWYRQTPGKQRELVAAITSDGSTTYQDSVKGRFTISRDNANRTANLYMNSLKSEDTAVYYCNADGRFNDNGYVKNFNIWGQGTQVTVSS
For the molecule B1, the binding result is “no binding”.
